Results: patent US20220362330A1, “Compositions and Methods for Increasing Epithelial Barrier Function” (The Board of Trustees of the Leland Stanford Junior …, priority 2019, published 2022)

Legend:
desmocollin-1 (DSC1) = experiment: qRT-PCR of Dsc1 gene expression in vaginal tissue; format: in vivo, mice
Protocol: (§1) To define progestin-mediated changes in mucosal permeability, vaginal tissue from mice in estrus, diestrus, or after DMPA or LNG treatment was used to measure expression of the desmosomal cadherins desmoglein-1a (DSG1a) and desmocollin-1 (DSC1).
(§2) Human ectocervical and murine vaginal tissues were immediately immersed in 1 mL of RNAlater® (Qiagen), stored for 24 h at 4° C., and stored long-term at −80° C. RNA isolated using the RNeasy Lipid Tissue Kit (Qiagen) using manufacturer's instructions was re-suspended in nuclease-free water and quantified using a NanoDrop spectrophotometer (Thermo Scientific). The following mouse primers were utilized: desmocollin 1 (Mm00496525_ml), desmoglein-1α (Mm00809994_s1), ephrinA3 (Mm01212723_g1) and pyruvate carboxylase (Mm00500992_ml) as housekeeping reference gene (all from Thermo Scientific). These human primers were used: desmoglein-1 (Hs00355084_m1) and glucose-6-phosphate isomerase (Hs00976711_m1) as a housekeeping reference gene. To define relative gene expression, 100 ng of RNA was mixed with TaqMan® RNA-to-Ct™ 1-Step Kit and adequate primer (final volume of 10 μL/well) using manufacturer's instructions (Life Technologies). qRT-PCR was performed using a Quantstudio3 Thermal Cycler, and data analyzed via Quanstudio Software (Applied Biosystems).

[1] = tested on: claudin-1, occludin, and tight junction protein 1; experiment: Gene expression of other cell-cell adhesion molecules in vaginal tissue; format: in vivo, mice
genital mucosal barrier [2] = experiment: Murine tissue permeability assay, low molecular weight fluorescent molecules given intravaginally; format: in vivo, mice
Protocol: Effects of progestins on genital mucosal barrier permeability were evaluated by intravaginally (ivag) administering 457 Da and 70 KDa-sized fluorescent molecules to mice in estrus or diestrus-stage or after DMPA or LNG treatment. Mice were grouped as follows: untreated in estrus, untreated in diestrus, DMPA treated, or LNG treated. The mice were intravaginally administered a PBS solution containing Lucifer yellow (457 Da) and Texas-Red-conjugated dextran (70 KDa). Animals were euthanized 45 minutes later to assess vaginal tissue penetration of these molecules by confocal microscopy. […] Mucosal permeability was increased moderately by diestrus, but dramatically by DMPA or LNG. Conversely, permeability increases were negligible in estrus-stage mice and mice treated with MePRDL or DMPA and RU486. This indicates exogenous progestins increase genital mucosal permeability.
To evaluate mucosal permeability to low molecular weight molecules, indicated groups of mice were sedated, and 10 μL of a PBS solution containing 62.5 μg of dextran Texas-Red® (DR) (MW=70,000 Da) and 50 μg of Lucifer yellow CH, lithium salt (LY) (MW=457.2 Da) (both from Life Technologies) administered intravaginally. 45 minutes later, mice were euthanized, and excised vaginal tissue fixed in formaldehyde. Fixed tissue was embedded in agarose, and 200-300 μm specimens were sectioned with a vibratome. After counterstaining with 4,6-diamidino-2-phenylindole (DAPI), confocal microscopy images were acquired by sequential scanning to prevent fluorescence crossover.

desmoglein-1a (DSG1a) = experiment: qRT-PCR of Dsg1a gene expression in vaginal tissue; format: in vivo, mice; settings: for relative expression of Dsg1a: DMPA-treated mice, His-tagged ephrins 1.5 ug/30 uL ivag; for relative expression of Dsg1a / Dsg1a gene expression in vaginal tissue: 24 h; for Dsg1a gene expression in vaginal tissue: OVX mice, single ivag dose
Protocol: as §1, §2

DSG1 protein = DSG1 protein levels in vaginal tissue, immunofluorescent staining and confocal microscopy; format: in vivo, mice; settings: for levels of DSG1 protein in vaginal tissue: His-tagged ephrins 1.5 ug/30 uL ivag; for levels of DSG1 protein in vaginal tissue / DSG1 protein levels in vaginal tissue: 24 h; for DSG1 protein levels in vaginal tissue: OVX mice, single ivag dose
Protocol: Excised mouse vaginas were formaldehyde fixed and paraffin embedded (FFPE), and 10 μm sections mounted on glass slides and de-paraffinized by sequential immersion in 100% xylene, 100% ethanol, 96% ethanol, and sterile DEPC-treated water. Antigen retrieval was performed using 10 mM sodium citrate buffer (pH 6.0) containing 0.05% Tween 20 (both Sigma-Aldrich) (20 minutes at 95° C.). After 3 PBS washes, sections were incubated overnight in 10% normal goat serum (Abcam, Cambridge Mass.) at 4° C., then incubated for 1 h at ambient temperate with rabbit anti-desmoglein-1 (clone EPR6766(B)) antibody, washed and incubated for 1 h with AlexaFluor® 488-labeled goat anti-rabbit IgG (antibodies from Abcam) (all antibodies were diluted in PBS with 1% BSA and 0.05% Tween 20). Sections were stained with DAPI and evaluated for levels of DSG1 protein (defined by calculating pixel numbers per 100 μm^2) using confocal microscopy and ImageJ software.

HSV-2 = experiment: Lethal genital HSV-2 infection; format: in vivo; settings: DMPA-treated mice
Protocol: Mice were sedated with xylazine (Lloyd Laboratories, Shenandoah Iowa) and ketamine hydrochloride (JHP Pharmaceuticals, LLC Rochester Mich.), and intravaginally infected with 10^4 plaque-forming units (pfu) of WT HSV-2 333 in 10 μL of RPMI. Mouse mortality was evaluated daily for 15 days.

genital mucosal barrier [3] = experiment: Murine tissue permeability assay, low molecular weight fluorescent molecules given intravaginally; format: in vivo, mice; settings: OVX mice, single dose, vs untreated OVX mice
HSV-1 = experiment: Genital HSV-1 GFP infection, virus replication in vaginal epithelium; format: in vivo, mice; settings: DMPA-treated mice
Protocol: Estrus-stage or DMPA-treated mice were intravaginally administered vehicle or recombinant mouse Fc-EFNA3 at 1.5 ug/30 uL 24 h prior to genital infection with 3×10^3 PFU HSV-1q GFP (fluorescent virus). Vaginal tissue was recovered 24 h after infection and evaluated for HSV-1 replication in the vaginal epithelium using confocal microscopy. […] To evaluate if treatment with rm-EphrinA3 protects mice from lethal HSV-2 infection, DMPA-treated mice were intravaginally administered Fc- or His-tagged versions of the rm-protein prior to infection. […] Because the microarray data indicated EphrinA1, EphrinA2, EphrinA3, EphrinA4, and EphrinA5 were upstream regulators of Dsg1 and Dsc1 expression in the mouse vagina, we hypothesized that capacity of EphrinA3 to increase cell-cell adhesion molecule expression may be shared by other members of the EphrinA family.

[4] = progestin-treated mice vs mice in estrus

With C#C[C@]1(O)CC[C@H]2[C@@H]3CCC4=CC(=O)CC[C@@H]4[C@H]3CC[C@@]21CC [LNG, reference compound] the “DSC1 gene expression in vaginal tissue” value (desmocollin-1 (DSC1); [4]) was “decrease gene expression levels”, the “gene expression of claudin-1, occludin, and tight junction protein 1” value [1] was “did not alter” and the “penetration of the 457 Da molecules into vaginal tissue” value (genital mucosal barrier [2]; confocal images, 45 minutes after ivag administration) was “greatest penetration”. The Mucosal permeability increase (genital mucosal barrier [2]; mice, ivag Lucifer yellow (457 Da) and Texas-Red dextran (70 KDa), 45 minutes, confocal microscopy) was “dramatically”, the “DSG1a gene expression in vaginal tissue” value (desmoglein-1a (DSG1a); [4]) was “decrease gene expression levels” and the “DSG1a protein expression in vaginal tissue” value (DSG1 protein; [4]) was “significantly reduced”.

B1: His-EFNA3: Ephrin A3 Protein, Mouse, Recombinant (His Tag), SEQ ID NO: 15 (protein, UniProt P52797 23-214, looked up)
Ephrin-A3: QGPGGALGNRHAVYWNSSNQHLRREGYTVQVNVNDYLDIYCPHYNSSGVGPGAGPGPGGGAEQYVLYMVSRNGYRTCNASQGFKRWECNRPHAPHSPIKFSEKFQRYSAFSLGYEFHAGHEYYYISTPTHNLHWKCLRMKVFVCCASTSHSGEKPVPTLPQFTMGPNVKINVLEDFEGENPQVPKLEKSISG
modifications: His tag
For B1, the “survival after genital HSV-2 infection” value (HSV-2; 10^4 pfu of HSV-2) was “improves the survival” and the “levels of DSG1 protein in genital tissue” value (DSG1 protein; DMPA-treated mice, ivag in 10 μL of PBS, 24 hours) was “increased levels of DSG1 protein”.

B2: EphrinA2: Ephrin A2/EFNA2 Protein, Mouse, Recombinant (His Tag), SEQ ID NO: 17 (protein)
chain: MAPAQRPLLPLLLLLLPLRARNEDPARANADRYAVYWNRSNPRFQVSAVGDGGGYTVEVSINDYLDIYCPHYGAPLPPAERMERYILYMVNGEGHASCDHRQRGFKRWECNRPAAPGGPLKFSEKFQLFTPFSLGFEFRPGHEYYYISATPPNLVDRPCLRLKVYVRPTNETLYEAPEPIFTSNHHHHHH
modifications: His tag
With B2 the “relative expression of Dsg1a” value (desmoglein-1a (DSG1a)) was “increased relative expression”, the “levels of DSG1 protein in vaginal tissue” value (DSG1 protein; DMPA-treated mice) was “similarly increase” and the “levels of DSG1 protein in vaginal tissue” value (DSG1 protein; DMPA-treated mice, listed as EFNA2) was “increased levels of DSG1 protein”.

B3: EphrinA3: mouse recombinant EphrinA3; Fc- or His-tagged version not always specified at the place (protein, UniProt O08545 23-206, looked up)
Ephrin-A3: QGPGGALGNRHAVYWNSSNQHLRREGYTVQVNVNDYLDIYCPHYNSSGPGGGAEQYVLYMVNLSGYRTCNASQGSKRWECNRQHASHSPIKFSEKFQRYSAFSLGYEFHAGQEYYYISTPTHNLHWKCLRMKVFVCCASTSHSGEKPVPTLPQFTMGPNVKINVLEDFEGENPQVPKLEKSISG
In the case of B3, the “Dsc1 gene expression in vaginal tissue” value (desmocollin-1 (DSC1); OVX mice, single ivag dose, 24 h) is reported as “increases”, the reduction of mortality (HSV-2; one ivag dose (Fc- or His-tagged) prior to lethal HSV-2 infection, compared to DMPA alone) is reported as “approximately 25%” and the “genital mucosal barrier function (penetration of lucifer yellow, 457 Da)” value (genital mucosal barrier [3]) is reported as “improved function of the genital mucosal barrier”. The “genital mucosal barrier function (penetration of lucifer yellow, 457 Da)” value (genital mucosal barrier [3]; listed as EFNA3) was “enhanced genital mucosal barrier function”, the “HSV-1 replication in mouse genital tissue” value (HSV-1) was “reduced” and the “genital mucosal barrier function / permeability to LMW fluorescent molecules” value (genital mucosal barrier [2]; DMPA-treated mice, one ivag dose of 1.5 ug/30 uL) was “enhanced genital mucosal barrier function”. For the same molecule, the “relative expression of Dsg1a” value (desmoglein-1a (DSG1a)) was “increased relative expression”, the “Dsg1a gene expression in vaginal tissue” value (desmoglein-1a (DSG1a)) was “greatly improved” and the “Dsg1a gene expression in vaginal tissue” value (desmoglein-1a (DSG1a); listed as EFNA3) was “increases”. The “levels of DSG1 protein in vaginal tissue” value (DSG1 protein; DMPA-treated mice) was “similarly increase”, the “levels of DSG1 protein in vaginal tissue” value (DSG1 protein; DMPA-treated mice, listed as EFNA3) was “increased levels of DSG1 protein” and the “DSG1 protein levels in vaginal tissue” value (DSG1 protein) was “greatly improved”. The “DSG1 protein levels in vaginal tissue” value (DSG1 protein; listed as EFNA3) was “increases”.
